A short description of series [1]: terminal elimination half-life in rats. The following applies: unpublished finding. It is filed as in vivo.
A short description of series [2]: long-term in vivo METH binding function during continuous sc (+)-METH infusion. The following applies: rats, single iv mAb dose 180 mg/kg, sc (+)-METH infusion 5.6 mg/kg/day, serum METH to day 13. Also on record: species or system Sprague-Dawley rats. Here is the method: FIG. 1 depicts two graphs showing changes in METH in vivo binding by anti-METH monoclonal antibodies (mAbs) in the presence of a 13 day continuous METH infusion. Once METH achieved steady-state levels (pre-mAb) in each of the Sprague-Dawley rats (n=2 per group), a single dose of vehicle treatment (METH only) or of treatment with three different anti-METH mAbs were given as an iv bolus (180 mg/kg, equimolar in binding sites to the METH body burden). Serum samples were collected before the mAb treatment and at various time points after mAb treatment for determination of METH concentrations over time (A). Values represent the mean METH concentration of each group for each time point. METH AUC data is shown in (B). […]
About 16 h after pumps implantation, the rats were anesthetized with halothane. […] METH concentrations in serum samples were then determined by liquid chromatograph/mass spectrometry/mass spectrometry (LC/MS/MS) analysis by a previously reported method from our laboratory (Laurenzana E M et al. Drug Metab Dispos (1995) 23: 271-278).
The route of (+)-METH dosing was a subcutaneous (sc) infusion. […] Body weights, eating behavior, and general health observations were recorded for each animal. (+)-METH concentrations were determined by LC/MS/MS, similar to the method described by described by (Laurenzana E M et al. Drug Metab Dispos (1995) 23: 271-278). […]

Series [3] is described as follows: (±)-METH priming-induced reinstatement (relapse) of lever pressing. The settings on record: for response rate (lever presses on reinforced lever): Day 1, 1 mg/kg ip (±)-METH prime. It is filed as in vivo, male Long Evans rat. Here is the method:
The male Long Evans rat was chosen as the animal model for this study because it is a preferred rodent species for preclinical toxicity testing of drug self-administration paradigms. Commercially obtained test chambers equipped with two retractable levers, a white cue light positioned above each lever, a 5-w house light, and a Sonalert® tone generator (MED Associates, Inc., St. Albans, Vt.) emitting a 2900 Hz, 60 dB tone were used. Infusions were delivered in a 0.2 ml volume by a 6-s activation of infusion pumps (Model PHS-100; MED Associates, Inc., St. Albans, Vt.). Recordings of lever presses and activations of lights, pumps, and Sonalerts® were accomplished by a microcomputer, interface and associated software (MED-PC® IV, MED Associates, Inc., St. Albans, Vt.).
(±)-METH self-administration (SA) training sessions were conducted five days per week (M-F) for 2 hrs daily. At the start of (±)-METH SA sessions, the levers were extended and the house light was illuminated. […] At the start of an infusion the house light was extinguished, the Sonalert® was sounded, and the cue lights above each lever flashed at 3 Hz. The Sonalert® and cue lights remained activated during the 6 s infusion. Twenty seconds following the onset of the infusion the house light was re-illuminated, and the opportunity to self-administer (±)-METH was again made available (i.e., each (±)-METH infusion initiated a 20 s period during which lever presses were recorded but were without scheduled consequences and further infusions could not be obtained). Reinforced-lever (right-side) lever presses during the infusions as well as all non-reinforced (left-side) lever presses were recorded, but the latter were without scheduled consequences.
SA training continued until all three criteria had been met: 1) at least 12 self-administration sessions occurred; 2) at least 15 (±)-METH infusions occurred during each of the last four sessions; and, 3) at least 125 lifetime (±)-METH infusions were obtained. Subsequently, twelve 2-h daily (Mon-Sun) extinction sessions were conducted. […] Other conditions during extinction were identical to those during SA. That is, during extinction sessions, both levers were extended and the house light was activated. Before the last four extinction sessions, an injection of saline (the vehicle for (±)-METH prime) was administered ip 30 min pre-session to acclimate the rats to the injection procedure.
Reinstatement testing followed extinction training. A rat was considered eligible for subsequent reinstatement testing if during the last three extinction sessions the mean number of reinforced-lever lever presses was less than the mean number occurring during the first three extinction sessions. […] One rat in the vehicle group was inadvertently retained, even though its response mean (12.3 responses) during the last three extinction sessions exceeded its first three extinction sessions (11.6 responses). Reinstatement testing occurred across 13 daily (Mon-Sun) 2-h experimental sessions. Conditions during reinstatement testing were identical to those during extinction training with two exceptions.
The ip route of (±)-METH exposure during relapse testing was selected mainly for convenience of dosing and to avoid additional use of the catheters. […] The dose volume for each animal was based on the most recent body weight measurement.
Body weights, eating behavior, and general health observations were recorded for each animal. Analyses of an animal's lever pressing responses to vehicle and (±)-METH-induced relapse to active lever responding were used as a measure of the animal's response to an ip injection of vehicle (control) or (±)-METH (1.0 mg/kg).
Initially, the number of right-side lever presses occurring during test days between test groups was compared using a two-factor, repeated measures ANOVA (Prism 5 for Macintosh, GraphPad Software, Inc., San Diego, Calif.). […]

Entries after “also recorded” stand apart in the source; their conditions may differ.

B1: Antibody 51: high affinity murine anti-METH monoclonal antibody; light chain SEQ ID NO: 3, heavy chain SEQ ID NO: 4 (antibody)
heavy: EIQLQQSGPELGKPGASVKVSCRASGFSFADYYIYWVKQSHGKSLELIGYIDPFNGGDTYNQIFKGKATLTVDKSSSTAFMYLNSLTSEDSAVYYCAAFRNPSFDFWGQGTTLTVSSAKTTPPSVYPLAPGSAAQTNSMVTLGCLVKGYFPEPVTVTWNSGSLSSGVHTFPAVLQSDLYTLSSSVTVPSSTWPSETVTCNVAHPASSTKVDKKIVPRDCGCKPCICTVPEVSSVFIFPPKPKDVLTITLTPKVTCVVVDISKDDPEVQFSWFVDDVEVHTAQTQPREEQFNSTFRSVSELPIMHQDWLNGKEFKCRVNSAAFPAPIEKTISKTKGRPKAPQVYTIPPPKEQMAKDKVSLTCMITDFFPEDITVEWQWNGQPAENYKNTQPIMDTDGSYFVYSKLNVQKSNWEAGNTFTCSVLHEGLHNHHTEKSLSHSPGK
light: QIVLIQSPPIMSASPGEKVTLTCSASSSVSSRYLYWYQQKPGSSPKLWIYGTSNLASGVPARFSGSGSGTSFSLTISSMEAEDAASYFCHQWSSFPFTFGSGTKLEIKRADAAPTVSIFPPSSEQLTSGGASVVCFLNNFYPKDINVKWKIDGSERQNGVLNSWTDQDSKDSTYSMSSTLTLTKDEYERHNSYTCEATHKTSTSPIVKSFNRNEC
modifications: SYTHENSIZED
On to B1, for which, in series [1], the terminal elimination half-life was roughly 140 h. In series [2], the “long-term in vivo METH binding function” value is reported as “showed long-term functional properties”. Besides, the “responding with subsequent treatments every three days” value in series [3] (30 mg/kg iv) was “maintained responding at levels always higher than the control”; in series [3] (56 mg/kg iv), “progressively lower responses from the Day 1 level of responding”. Moreover, the “increase over control values” in series [3] (30 mg/kg iv, Day 1) is listed as 143%; in series [3] (56 mg/kg iv, Day 1) it was 182%. Besides, the “response rate (lever presses on reinforced lever)” value in series [3] (30 mg/kg iv) amounted to 70 presses; in series [3] (56 mg/kg iv) it was 91 presses. Moreover, in series [3] (100 mg/kg iv, Day 1), the lever presses is roughly 50 lever presses. For the same molecule, the “responding compared to vehicle” value in series [3] (100 mg/kg iv, Day 1) was “at the same level as vehicle treatment responding”. Also, the “apparent METH dose on ascending side of simulated dose-response curve” value in series [3] (100 mg/kg iv, Day 1, pharmacodynamic simulation, 50 responses) is listed as roughly 0.025 mg/kg/inj. Further, the “responding compared to control” value in series [3] (100 mg/kg iv, Day 7, after third dose) is “significantly reduced; also recorded: near extinction”; in series [3] (100 mg/kg iv, after the second administration), “reduced responding below control levels”. The responding entry in series [3] (100 mg/kg iv, Day 10, administration stopped) is recorded as “remained blunted”; in series [3] (100 mg/kg iv, Day 13, administration stopped) it was “return to near control levels of responding”.

The record behind these values is patent publication US9023353B2, “Anti-(+)—methamphetamine monoclonal antibodies” (Board of Trustees University of Arkansas, priority 2013, dated 2015).
